Test results from the supplement of paper PMC9876800.

System: peptide library, one residue held at a place counted from the S/T acceptor
Test: relative phosphorylation of the sub-library (ratio to the mean residue at this position); higher = residue favoured
Outline: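 Human or orthologue kinase constructs, purified and recombinant, were incubated under kinase-specific conditions in 384-well plates with biotinylated degenerate peptide sub-libraries. Each sub-library fixed one residue at one position around a central Ser/Thr. Incubations lasted 90 min with peptides at 50 μM and 50 μM ATP spiked with γ-32P-ATP, after which spots on streptavidin membranes were phosphorimaged and quantified by densitometry. Relative sub-library phosphorylation is a ratio to the mean residue at that position.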

RPS6KA1, construct: Full length, human, sequence (Q15418 whole entry, looked up): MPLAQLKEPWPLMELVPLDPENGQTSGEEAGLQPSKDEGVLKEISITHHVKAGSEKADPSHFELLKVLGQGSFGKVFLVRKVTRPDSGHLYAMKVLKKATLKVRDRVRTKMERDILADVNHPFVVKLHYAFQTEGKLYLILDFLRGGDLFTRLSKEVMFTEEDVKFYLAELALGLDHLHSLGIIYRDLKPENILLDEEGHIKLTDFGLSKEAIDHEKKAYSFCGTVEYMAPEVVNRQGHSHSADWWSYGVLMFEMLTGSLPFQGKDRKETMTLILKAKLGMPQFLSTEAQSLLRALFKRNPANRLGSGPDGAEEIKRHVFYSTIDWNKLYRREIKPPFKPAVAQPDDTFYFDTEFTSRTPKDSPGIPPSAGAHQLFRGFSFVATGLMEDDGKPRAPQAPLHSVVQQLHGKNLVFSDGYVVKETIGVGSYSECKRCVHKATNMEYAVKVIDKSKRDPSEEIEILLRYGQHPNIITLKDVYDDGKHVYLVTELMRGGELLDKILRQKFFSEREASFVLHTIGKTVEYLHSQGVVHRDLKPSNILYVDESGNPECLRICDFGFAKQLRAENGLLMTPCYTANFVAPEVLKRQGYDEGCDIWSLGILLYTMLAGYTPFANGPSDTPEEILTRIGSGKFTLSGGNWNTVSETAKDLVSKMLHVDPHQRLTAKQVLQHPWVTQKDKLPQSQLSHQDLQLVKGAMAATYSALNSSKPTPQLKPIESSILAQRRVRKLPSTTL
MAP3K7, construct: aa1-303, human, sequence (O43318 1-303, looked up): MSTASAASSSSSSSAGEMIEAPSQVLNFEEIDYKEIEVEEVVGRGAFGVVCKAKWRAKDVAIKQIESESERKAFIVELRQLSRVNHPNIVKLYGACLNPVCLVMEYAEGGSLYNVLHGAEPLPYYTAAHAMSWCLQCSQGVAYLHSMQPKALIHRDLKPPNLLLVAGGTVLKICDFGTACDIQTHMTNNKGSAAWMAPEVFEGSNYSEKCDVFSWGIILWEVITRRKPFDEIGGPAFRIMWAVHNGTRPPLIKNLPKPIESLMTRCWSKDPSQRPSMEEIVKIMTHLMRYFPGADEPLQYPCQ
GRK3, construct: Full length, human, sequence (P35626 whole entry, looked up): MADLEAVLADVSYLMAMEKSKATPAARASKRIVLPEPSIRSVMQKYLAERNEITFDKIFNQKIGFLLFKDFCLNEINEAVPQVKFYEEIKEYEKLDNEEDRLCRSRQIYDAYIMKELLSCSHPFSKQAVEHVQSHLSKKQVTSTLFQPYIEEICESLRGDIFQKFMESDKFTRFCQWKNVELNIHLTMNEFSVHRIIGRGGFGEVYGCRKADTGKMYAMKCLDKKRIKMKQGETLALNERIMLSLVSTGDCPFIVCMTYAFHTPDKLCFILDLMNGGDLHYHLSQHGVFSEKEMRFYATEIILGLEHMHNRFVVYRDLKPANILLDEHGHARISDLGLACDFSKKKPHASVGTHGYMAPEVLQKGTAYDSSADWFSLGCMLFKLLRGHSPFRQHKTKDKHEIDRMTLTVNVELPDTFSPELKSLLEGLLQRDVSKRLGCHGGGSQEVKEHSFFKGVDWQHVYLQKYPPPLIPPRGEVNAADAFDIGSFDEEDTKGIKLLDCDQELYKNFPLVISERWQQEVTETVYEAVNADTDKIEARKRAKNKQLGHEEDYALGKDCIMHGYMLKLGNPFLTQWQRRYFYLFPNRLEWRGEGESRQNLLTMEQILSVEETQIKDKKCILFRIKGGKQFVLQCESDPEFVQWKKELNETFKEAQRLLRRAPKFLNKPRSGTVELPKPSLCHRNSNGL

MAP3K7, construct: aa1-303, human (from UniProt O43318)
relative phosphorylation
Settings | at +1 | at +2 | at +3 | at +4 | at -1 | at -2 | at -3 | at -4 | at -5
A fixed | 0.455 | 0.709 | 0.902 | 0.855 | 0.708 | 0.979 | 1.18 | 0.95 | 1.05
D fixed | 0.391 | 1.03 | 0.996 | 0.885 | 1.18 | 0.533 | 0.857 | 1.69 | 1.56
E fixed | 0.668 | 0.547 | 0.878 | 0.898 | 0.687 | 0.863 | 0.662 | 1.33 | 1.17
F fixed | 1.44 | 0.608 | 0.93 | 0.735 | 1.01 | 1.14 | 0.818 | 0.938 | 0.891
G fixed | 0.565 | 0.809 | 1.39 | 1.18 | 0.528 | 0.592 | 0.714 | 1.14 | 1.04
H fixed | 0.914 | 1.42 | 1.1 | 1.11 | 1.23 | 1.42 | 1.1 | 1.05 | 1.07
I fixed | 1.41 | 0.623 | 0.714 | 0.921 | 0.888 | 1.2 | 1.14 | 0.872 | 0.781
K fixed | 0.409 | 2.3 | 1.33 | 1.42 | 0.752 | 0.581 | 0.752 | 0.734 | 0.885
L fixed | 2 | 0.608 | 0.821 | 0.949 | 1.57 | 1.01 | 1.13 | 0.834 | 0.77
M fixed | 1.55 | 0.786 | 0.968 | 0.897 | 1.41 | 1.31 | 0.999 | 0.9 | 0.884
N fixed | 2.36 | 1.44 | 1.07 | 0.959 | 1.13 | 0.633 | 0.649 | 0.962 | 0.987
P fixed | 0.206 | 0.741 | 0.892 | 1.29 | 0.348 | 0.537 | 0.854 | 0.807 | 1.06
Q fixed | 1.17 | 0.78 | 0.93 | 0.993 | 0.866 | 0.785 | 0.65 | 0.818 | 0.818
R fixed | 0.597 | 2.39 | 1.33 | 1.29 | 1.02 | 1 | 1.54 | 0.795 | 0.994
V fixed | 0.914 | 0.758 | 0.874 | 0.836 | 0.768 | 1.07 | 1 | 0.934 | 0.894
W fixed | 0.963 | 0.646 | 0.969 | 0.923 | 1.2 | 1.31 | 1.37 | 1.14 | 1.07
Y fixed | 0.979 | 0.804 | 0.903 | 0.866 | 1.7 | 2.04 | 1.58 | 1.11 | 1.08
pThr fixed | 0.898 | 1.36 | 1.33 | 0.99 | 1.03 | 1.41 | 1.53 | 1.4 | 1.14
pTyr fixed | 0.431 | 0.475 | 0.716 | 0.689 | 1.07 | 1.01 | 0.786 | 0.912 | 1.09

RPS6KA1, construct: Full length, human (from UniProt Q15418)
relative phosphorylation
Settings | at +1 | at +2 | at +3 | at +4 | at -1 | at -2 | at -3 | at -4 | at -5
A fixed | 0.899 | 1.02 | 0.983 | 0.839 | 0.926 | 0.75 | 0.694 | 1.2 | 0.916
D fixed | 0.459 | 0.887 | 1.1 | 1.25 | 0.593 | 0.724 | 0.524 | 0.574 | 0.439
E fixed | 0.784 | 0.691 | 1.13 | 1.03 | 0.408 | 0.614 | 0.424 | 0.703 | 0.364
F fixed | 1.09 | 0.767 | 1 | 0.816 | 0.796 | 0.684 | 0.365 | 0.817 | 0.822
G fixed | 0.654 | 0.939 | 1.08 | 0.985 | 1.19 | 1.2 | 0.737 | 1.22 | 0.977
H fixed | 1.15 | 1.55 | 1.24 | 1.05 | 1.06 | 1.14 | 0.549 | 0.857 | 0.935
I fixed | 1.3 | 1.05 | 0.853 | 0.76 | 0.404 | 0.546 | 0.331 | 0.931 | 0.849
K fixed | 0.881 | 0.77 | 0.686 | 1.14 | 1.21 | 1.86 | 1.32 | 1.63 | 1.84
L fixed | 0.969 | 0.816 | 1.05 | 0.785 | 0.942 | 1.14 | 0.388 | 0.895 | 1.18
M fixed | 1.1 | 0.774 | 0.93 | 0.791 | 1.04 | 0.897 | 0.487 | 1.05 | 0.72
N fixed | 1.02 | 1.04 | 0.822 | 1.01 | 1.14 | 0.732 | 0.506 | 0.722 | 0.67
P fixed | 0.625 | 0.615 | 0.914 | 1.47 | 2.71 | 0.581 | 0.76 | 0.979 | 0.993
Q fixed | 1.39 | 0.817 | 0.94 | 1.21 | 0.997 | 1.15 | 0.538 | 0.83 | 0.696
R fixed | 1.07 | 1.2 | 0.875 | 0.914 | 1.25 | 3.29 | 8.19 | 2.05 | 2.91
V fixed | 1.62 | 1.14 | 0.801 | 0.819 | 0.592 | 0.441 | 0.315 | 0.79 | 0.75
W fixed | 0.884 | 1.16 | 1.34 | 1.16 | 0.739 | 0.597 | 0.482 | 0.978 | 1.1
Y fixed | 1.1 | 1.77 | 1.26 | 0.969 | 1.01 | 0.649 | 0.39 | 0.779 | 0.841
pThr fixed | 1.51 | 0.917 | 1.17 | 1.95 | 0.284 | 0.293 | 0.348 | 0.573 | 0.527
pTyr fixed | 1.32 | 0.957 | 1.59 | 1.17 | 0.522 | 0.33 | 0.332 | 0.413 | 0.526

GRK3, construct: Full length, human (from UniProt P35626)
relative phosphorylation
Settings | at +1 | at +2 | at +3 | at +4 | at -1 | at -2 | at -3 | at -4 | at -5
A fixed | 0.782 | 1.39 | 0.849 | 0.868 | 0.913 | 0.745 | 0.971 | 1 | 1.03
D fixed | 1.07 | 0.888 | 1.9 | 1.5 | 1.25 | 1.53 | 2.52 | 1.73 | 1.39
E fixed | 1.75 | 0.887 | 1.99 | 1.36 | 1.62 | 4.07 | 3.01 | 1.78 | 1.2
F fixed | 1.36 | 1.18 | 0.882 | 0.855 | 0.914 | 0.895 | 0.666 | 0.868 | 1.1
G fixed | 0.857 | 0.967 | 1.04 | 1 | 0.703 | 0.784 | 0.822 | 0.962 | 0.9
H fixed | 0.973 | 1.22 | 1.03 | 1.06 | 1.06 | 0.755 | 0.631 | 0.892 | 0.929
I fixed | 1.27 | 1.44 | 0.933 | 1.1 | 0.913 | 0.573 | 0.649 | 0.855 | 1.06
K fixed | 0.51 | 0.51 | 0.614 | 0.725 | 0.658 | 0.59 | 0.629 | 0.843 | 0.824
L fixed | 0.766 | 0.705 | 0.898 | 0.829 | 0.979 | 0.688 | 0.604 | 0.844 | 1.03
M fixed | 1.24 | 0.904 | 0.979 | 0.994 | 1.05 | 0.746 | 0.68 | 1 | 0.964
N fixed | 0.742 | 0.874 | 0.922 | 1.03 | 1.02 | 0.854 | 0.845 | 0.932 | 0.946
P fixed | 0.477 | 0.495 | 0.638 | 1.01 | 1.4 | 0.833 | 0.907 | 0.974 | 0.788
Q fixed | 1.03 | 0.781 | 0.712 | 0.877 | 0.843 | 0.733 | 0.663 | 0.83 | 0.758
R fixed | 0.646 | 0.614 | 0.631 | 0.709 | 0.819 | 1.13 | 1.6 | 1.1 | 0.933
V fixed | 1.55 | 1.71 | 0.862 | 0.843 | 1.15 | 0.612 | 0.603 | 0.729 | 0.893
W fixed | 0.93 | 0.948 | 0.922 | 1.25 | 0.595 | 0.657 | 0.592 | 0.815 | 1.02
Y fixed | 1.03 | 1.48 | 1.2 | 0.992 | 1.12 | 0.794 | 0.605 | 0.847 | 1.23
pThr fixed | 7.07 | 1.13 | 1.13 | 2.86 | 1.38 | 5.37 | 5.68 | 2.74 | 1.72
pTyr fixed | 3.27 | 1.99 | 2.21 | 1.72 | 3.26 | 18.2 | 6.04 | 3.04 | 2.78
